Experimental data reported in patent US20230002480A1.

Tests used:
Test in all cases: cell-based or functional assay
[1] = target: HIV-1 Env of pseudovirus Ce0393_C3 (HIV-1)
[2] = target: HIV-1 Env of pseudovirus ZM197M.PB7 (HIV-1)
[3] = target: HIV-1 Env of pseudovirus CNE19 (HIV-1)
[4] = target: HIV-1 Env of pseudovirus Ce2010_F5 (HIV-1)
[5] = target: HIV-1 Env of pseudovirus 1056_10_TA11_1826 (HIV-1)
[6] = target: HIV-1 Env of pseudovirus ZM53M.PB12 (HIV-1)
[7] = target: HIV-1 Env of pseudovirus 9004SS_A3_4 (HIV-1)
[8] = target: HIV-1 Env of pseudovirus C2101.c01 (HIV-1)
[9] = target: HIV-1 Env of pseudovirus T251-18 (HIV-1)
[10] = target: HIV-1 Env of pseudovirus HIV-16055-2.3 (HIV-1)
[11] = target: HIV-1 Env of pseudovirus C3347.c11 (HIV-1)
[12] = target: HIV-1 Env of pseudovirus BF1266.431a (HIV-1)
[13] = target: HIV-1 Env of pseudovirus 3365.v2.c2 (HIV-1)
[14] = target: HIV-1 Env of pseudovirus SC422661.8 (HIV-1)
[15] = target: HIV-1 Env of pseudovirus C1080.c03 (HIV-1)
[16] = target: HIV-1 Env of pseudovirus CNE58 (HIV-1)
[17] = target: HIV-1 Env of pseudovirus ZM249M.PL1 (HIV-1)
[18] = target: HIV-1 Env of pseudovirus R2184.c04 (HIV-1)
[19] = target: HIV-1 Env of pseudovirus BJOX015000.11.5 (HIV-1)
[20] = target: HIV-1 Env of pseudovirus Ce0682_E4 (HIV-1)
[21] = target: HIV-1 Env of pseudovirus Q769.d22 (HIV-1)
[22] = target: HIV-1 Env of pseudovirus 249M B10 (HIV-1)
[23] = target: HIV-1 Env of pseudovirus BJOX025000.01.1 (HIV-1)
[24] = target: HIV-1 Env of pseudovirus CAP210.2.00.E8 (HIV-1)
[25] = target: HIV-1 Env of pseudovirus TRJO4551.58 (HIV-1)
[26] = target: HIV-1 Env of pseudovirus Ce1086_B2 (HIV-1)
[27] = target: HIV-1 Env of pseudovirus 62357_14_D3_4589 (HIV-1)
[28] = target: HIV-1 Env of pseudovirus WITO4160.33 (HIV-1)
[29] = target: HIV-1 Env of pseudovirus ZM109F.PB4 (HIV-1)

N49P7 (antibody)
neutralization IC50 [1]: 0.195 µg/mL
neutralization IC80 [1]: 0.802 µg/mL
neutralization MPI [1]: 100
neutralization IC50 [2]: 0.109 µg/mL
neutralization IC80 [2]: 0.347 µg/mL
neutralization MPI [2]: 100
neutralization IC50 [3]: 0.009 µg/mL
neutralization IC80 [3]: 0.041 µg/mL
neutralization MPI [3]: 100
neutralization IC50 [4]: 0.13 µg/mL
neutralization IC80 [4]: 0.547 µg/mL
neutralization MPI [4]: 100
neutralization IC50 [5]: 0.141 µg/mL
neutralization IC80 [5]: 0.468 µg/mL
neutralization MPI [5]: 100
neutralization IC50 [6]: 0.251 µg/mL
neutralization IC80 [6]: 0.8 µg/mL
neutralization MPI [6]: 100
neutralization IC50 [7]: 0.125 µg/mL
neutralization IC80 [7]: 0.39 µg/mL
neutralization MPI [7]: 100
neutralization IC50 [8]: 0.06 µg/mL
neutralization IC80 [8]: 0.34 µg/mL
neutralization MPI [8]: 100
neutralization IC50 [9]: 0.178 µg/mL
neutralization IC80 [9]: 0.62 µg/mL
neutralization MPI [9]: 100
neutralization IC50 [10]: 0.057 µg/mL
neutralization IC80 [10]: 0.28 µg/mL
neutralization MPI [10]: 100
neutralization IC50 [11]: 0.024 µg/mL
neutralization IC80 [11]: 0.067 µg/mL
neutralization MPI [11]: 100
neutralization IC50 [12]: 0.057 µg/mL
neutralization IC80 [12]: 0.199 µg/mL
neutralization MPI [12]: 100
neutralization IC50 [13]: 0.07 µg/mL
neutralization IC80 [13]: 0.186 µg/mL
neutralization MPI [13]: 100
neutralization IC50 [14]: 0.114 µg/mL
neutralization IC80 [14]: 0.32 µg/mL
neutralization MPI [14]: 100
neutralization IC50 [15]: 0.114 µg/mL
neutralization IC80 [15]: 0.765 µg/mL
neutralization MPI [15]: 100
neutralization IC50 [16]: 0.029 µg/mL
neutralization IC80 [16]: 0.067 µg/mL
neutralization MPI [16]: 100
neutralization IC50 [17]: 0.039 µg/mL
neutralization IC80 [17]: 0.134 µg/mL
neutralization MPI [17]: 100
neutralization IC50 [18]: 0.011 µg/mL
neutralization IC80 [18]: 0.031 µg/mL
neutralization MPI [18]: 100
neutralization IC50 [19]: 0.036 µg/mL
neutralization IC80 [19]: 0.157 µg/mL
neutralization MPI [19]: 100
neutralization IC50 [20]: 0.041 µg/mL
neutralization IC80 [20]: 0.131 µg/mL
neutralization MPI [20]: 100
neutralization IC50 [21]: 0.025 µg/mL
neutralization IC80 [21]: 0.111 µg/mL
neutralization MPI [21]: 100
neutralization IC50 [22]: 0.081 µg/mL
neutralization IC80 [22]: 0.377 µg/mL
neutralization MPI [22]: 100
neutralization IC50 [23]: 0.038 µg/mL
neutralization IC80 [23]: 0.236 µg/mL
neutralization MPI [23]: 100
neutralization IC50 [24]: 1.82 µg/mL
neutralization IC80 [24]: 6.49 µg/mL
neutralization MPI [24]: 100
neutralization IC50 [25]: 0.104 µg/mL
neutralization IC80 [25]: 0.351 µg/mL
neutralization MPI [25]: 100
neutralization IC50 [26]: 0.089 µg/mL
neutralization IC80 [26]: 0.568 µg/mL
neutralization MPI [26]: 100
neutralization IC50 [27]: 0.025 µg/mL
neutralization IC80 [27]: 0.102 µg/mL
neutralization MPI [27]: 100
neutralization IC50 [28]: 0.084 µg/mL
neutralization IC80 [28]: 0.248 µg/mL
neutralization MPI [28]: 100
neutralization IC50 [29]: 0.034 µg/mL
neutralization IC80 [29]: 0.153 µg/mL
neutralization MPI [29]: 100

N49P7.1 (antibody)
neutralization IC50 [1]: 0.23 µg/mL
neutralization IC80 [1]: 1.02 µg/mL
neutralization MPI [1]: 100
neutralization IC50 [2]: 0.144 µg/mL
neutralization IC80 [2]: 0.539 µg/mL
neutralization MPI [2]: 100
neutralization IC50 [3]: 0.027 µg/mL
neutralization IC80 [3]: 0.128 µg/mL
neutralization MPI [3]: 100
neutralization IC50 [4]: 0.055 µg/mL
neutralization IC80 [4]: 0.208 µg/mL
neutralization MPI [4]: 100
neutralization IC50 [5]: 0.171 µg/mL
neutralization IC80 [5]: 0.603 µg/mL
neutralization MPI [5]: 100
neutralization IC50 [6]: 0.287 µg/mL
neutralization IC80 [6]: 1 µg/mL
neutralization MPI [6]: 100
neutralization IC50 [7]: 0.221 µg/mL
neutralization IC80 [7]: 0.841 µg/mL
neutralization MPI [7]: 100
neutralization IC50 [8]: 0.076 µg/mL
neutralization IC80 [8]: 0.425 µg/mL
neutralization MPI [8]: 100
neutralization IC50 [9]: 0.229 µg/mL
neutralization IC80 [9]: 0.794 µg/mL
neutralization MPI [9]: 100
neutralization IC50 [10]: 0.088 µg/mL
neutralization IC80 [10]: 0.318 µg/mL
neutralization MPI [10]: 100
neutralization IC50 [11]: 0.048 µg/mL
neutralization IC80 [11]: 0.161 µg/mL
neutralization MPI [11]: 100
neutralization IC50 [12]: 0.033 µg/mL
neutralization IC80 [12]: 0.11 µg/mL
neutralization MPI [12]: 100
neutralization IC50 [13]: 0.088 µg/mL
neutralization IC80 [13]: 0.289 µg/mL
neutralization MPI [13]: 100
neutralization IC50 [14]: 0.125 µg/mL
neutralization IC80 [14]: 0.417 µg/mL
neutralization MPI [14]: 100
neutralization IC50 [15]: 0.144 µg/mL
neutralization IC80 [15]: 1.05 µg/mL
neutralization MPI [15]: 100
neutralization IC50 [16]: 0.049 µg/mL
neutralization IC80 [16]: 0.107 µg/mL
neutralization MPI [16]: 100
neutralization IC50 [17]: 0.071 µg/mL
neutralization IC80 [17]: 0.239 µg/mL
neutralization MPI [17]: 100
neutralization IC50 [18]: 0.018 µg/mL
neutralization IC80 [18]: 0.04 µg/mL
neutralization MPI [18]: 100
neutralization IC50 [19]: 0.111 µg/mL
neutralization IC80 [19]: 0.487 µg/mL
neutralization MPI [19]: 100
neutralization IC50 [20]: 0.026 µg/mL
neutralization IC80 [20]: 0.099 µg/mL
neutralization MPI [20]: 100
neutralization IC50 [21]: 0.044 µg/mL
neutralization IC80 [21]: 0.163 µg/mL
neutralization MPI [21]: 100
neutralization IC50 [22]: 0.053 µg/mL
neutralization IC80 [22]: 0.225 µg/mL
neutralization MPI [22]: 100
neutralization IC50 [23]: 0.057 µg/mL
neutralization IC80 [23]: 0.378 µg/mL
neutralization MPI [23]: 100
neutralization IC50 [24]: 2.03 µg/mL
neutralization IC80 [24]: 7.3 µg/mL
neutralization MPI [24]: 99
neutralization IC50 [25]: 0.156 µg/mL
neutralization IC80 [25]: 0.529 µg/mL
neutralization MPI [25]: 100
neutralization IC50 [26]: 0.121 µg/mL
neutralization IC80 [26]: 0.742 µg/mL
neutralization MPI [26]: 99
neutralization IC50 [27]: 0.028 µg/mL
neutralization IC80 [27]: 0.15 µg/mL
neutralization MPI [27]: 100
neutralization IC50 [28]: 0.121 µg/mL
neutralization IC80 [28]: 0.326 µg/mL
neutralization MPI [28]: 100
neutralization IC50 [29]: 0.055 µg/mL
neutralization IC80 [29]: 0.199 µg/mL
neutralization MPI [29]: 100
